This note sets out measurements from publication PMC3087300 (Bioorganic & medicinal chemistry, 2009).

The experiment has as its target PSA (Homo sapiens, UniProt P07288).

Read-outs that look alike come from different tables or passages of the source.

Sequence of PSA (P07288 25-261): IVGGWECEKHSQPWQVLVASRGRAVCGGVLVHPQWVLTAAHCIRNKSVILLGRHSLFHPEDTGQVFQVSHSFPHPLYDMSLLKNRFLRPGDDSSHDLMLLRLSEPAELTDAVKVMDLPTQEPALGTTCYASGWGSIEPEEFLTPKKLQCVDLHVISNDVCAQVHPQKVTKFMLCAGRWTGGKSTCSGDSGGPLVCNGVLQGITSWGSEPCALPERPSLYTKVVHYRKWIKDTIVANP

Consider (Re) SAAC-SSQn(boro)L [Compound 47], for which the Ki (usually a dissociation constant, usually derived from enzyme kinetics or from competition with a known ligand) reads like this: (P2-P3 screen boronic acids and PSA imaging agents, Table 2) 28.4 ± 2.1 nM; (read-out: Ki for PSA, boronic acid inhibitors) 28 nM.
